In patent US20230295324A1 (published 2023):

Key:
[1] = target: T1, cynomolgus monkey OX40 protein (Novoprotein, #CB17) (cynomolgus monkey); test: ELISA, coated cyno OX40 protein
T1 construct: Bought recombinant protein; also called cyno OX40

[2] = target: T2, human 4-1BB on CHO-K1 cells (CHO-K1/hu 4-1BB) (human, UniProt Q07011 24-255); test: flow cytometry on CHO-K1/hu 4-1BB cells
T2 construct: whole, on cells
Description: This example is intended to investigate the specificity of in vitro binding of anti-human OX40 HCAb monoclonal antibodies by detecting 3 receptors of the TNF tumor necrosis factor receptor superfamily and ICOS by flow cytometry. The antibody binding assay at the cellular level was performed using a CHO-K1 cell strain overexpressing human OX40 (CHO-K1/hu OX40), a CHO-K1 cell strain overexpressing human CD40 (CHO-K1/hu CD40, Beijing KYinno, #KC-1286), a CHO-K1 cell strain overexpressing human 4-1BB (CHO-K1/hu 4-1BB, Genscript, #M00538) and an HEK293 cell strain overexpressing human ICOS (HEK293T/ICOS, Genscript, #KC-0210). Briefly, these cells were digested and resuspended in F12K or DMEM complete medium, and the cell density was adjusted to 1×10⁶ cells/mL. The cells were seeded in a 96-well V-bottom plate at 100 μL/well, and centrifuged, and then the supernatant was discarded. Then, the test antibodies diluted in a 3-fold gradient were added at 100 μL/well. The cells were incubated at 4° C. for 1 h away from light. Thereafter, the cells in each well were rinsed twice with 100 μL of pre-cooled PBS, and centrifuged at 500 g at 4° C. for 5 min, and then the supernatant was discarded. […] Finally, the cells in each well were resuspended in 200 μL of pre-cooled PBS, and the fluorescence signal values were read using NovoCyte flow cytometer (ACEA Biosciences).

[3] = target: T3, human OX40 on cells (CHO-K1/hu OX40) (human, UniProt P43489 29-277); test: FACS, CHO-K1/hu OX40 cells
T3 construct: whole, on cells; Also used here for OX40 on the HEK293/OX40/NF-kb reporter cells and on human T cells in the functional assays; also called CHO-K1/OX40; human OX40 cells
T3 sequence (looked up): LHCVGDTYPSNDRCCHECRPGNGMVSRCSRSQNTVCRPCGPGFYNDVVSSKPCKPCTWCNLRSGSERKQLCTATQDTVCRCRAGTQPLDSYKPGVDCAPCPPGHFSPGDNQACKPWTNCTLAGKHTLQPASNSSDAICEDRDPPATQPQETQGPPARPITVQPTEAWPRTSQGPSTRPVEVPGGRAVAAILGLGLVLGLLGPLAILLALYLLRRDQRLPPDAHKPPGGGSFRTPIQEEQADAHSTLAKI
Outline: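 Binding of anti-human OX40 HCAb antibodies measured by flow cytometry on CHO-K1 cells stably overexpressing human OX40. Cells incubated with 3-fold serially diluted antibodies 1 h at 4 °C in the dark, washed, then secondary staining 30 min at 4 °C; fluorescence read by FACS.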

[4] = target: T4, human OX40 protein (Acro biosystem, #OX0-H5224) (human, UniProt P43489 29-216); test: ELISA, coated human OX40 protein
T4 construct: Bought recombinant protein
T4 sequence (looked up): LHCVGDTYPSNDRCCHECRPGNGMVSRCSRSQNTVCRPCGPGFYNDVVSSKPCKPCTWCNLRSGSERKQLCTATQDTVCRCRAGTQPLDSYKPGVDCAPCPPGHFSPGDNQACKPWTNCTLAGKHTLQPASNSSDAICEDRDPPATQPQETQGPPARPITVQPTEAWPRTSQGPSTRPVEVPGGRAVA

[5] = target: T3, human OX40 on cells (CHO-K1/hu OX40); test: cell-based or functional assay

T2 sequence (Q07011 24-255): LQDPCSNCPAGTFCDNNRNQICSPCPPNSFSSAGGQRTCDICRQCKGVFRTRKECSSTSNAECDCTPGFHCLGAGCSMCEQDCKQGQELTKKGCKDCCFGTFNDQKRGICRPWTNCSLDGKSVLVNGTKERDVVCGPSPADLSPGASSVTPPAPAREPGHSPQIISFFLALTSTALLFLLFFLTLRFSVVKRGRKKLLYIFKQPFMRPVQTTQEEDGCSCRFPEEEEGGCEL

- EC50 [1]: 0.232 nM
- Maximum OD [1]: 2.16 OD
- binding result [2]: no binding
- EC50 [3]: 5.25 nM
- Maximum MFI [3]: 3010 MFI
- EC50 [4]: 0.0806 nM
- Maximum OD [4]: 2.38 OD
- EC50, IFN-γ release by human T cells with OKT3 and CHO-K1-CD32b cells [5]: 0.0863 nM
- Maximum IFN-γ release value [5]: 2000
B1: PR002067 (antibody, human IgG1, V domains shown)
VH: EVQLLESGGGLVQPGGSLRLSCAASGFTFSSYAMSWVRQAPGKGLEWVSAISGRGGSTFYADSVRGRFTISRDNSKNTLYLQMNSLRAEDTAMYYCVDGTTGTTDVDYWGQGTLVTVSS
notes: no light chain; also called anti-OX40 HCAb antibody
